In PMC7782513, “Structural basis for nuclear import selectivity of pioneer transcription factor SOX2” (Nature Communications, 2021):

T1: IMPα3 lacking the IMPβ-binding domain (residues 64-521) (human, UniProt O00629 64-521)
T1 sequence (looked up): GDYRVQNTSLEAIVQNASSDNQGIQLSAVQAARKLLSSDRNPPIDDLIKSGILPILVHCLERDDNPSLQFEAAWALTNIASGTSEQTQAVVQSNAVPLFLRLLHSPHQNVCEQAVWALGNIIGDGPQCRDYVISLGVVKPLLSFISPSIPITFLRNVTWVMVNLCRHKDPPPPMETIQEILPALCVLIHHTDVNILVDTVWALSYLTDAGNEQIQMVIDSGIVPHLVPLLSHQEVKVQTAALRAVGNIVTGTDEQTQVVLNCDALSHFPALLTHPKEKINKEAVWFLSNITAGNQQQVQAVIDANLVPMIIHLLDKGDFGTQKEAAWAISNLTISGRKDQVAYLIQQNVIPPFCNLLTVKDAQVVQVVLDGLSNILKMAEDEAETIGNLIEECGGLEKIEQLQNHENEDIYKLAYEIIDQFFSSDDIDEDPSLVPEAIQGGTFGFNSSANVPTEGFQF


Columns and labels:
Conditions in all cases: both partners purified
[1] = target: T1, IMPα3 lacking the IMPβ-binding domain …; assay: pull-down; 10 µM His-tagged SOX2 or mutant immobilised on Ni-NTA resin, 20 µM IMPα in 300 µL; washed three times with 50 mM phosphate pH 8.0, 300 mM NaCl, 20 mM imidazole; eluted through TEV cleavage; SDS-PAGE
[2] = target: T1, IMPα3 lacking the IMPβ-binding domain …; assay: MST; labelled SOX2 at 50 nM (his-tag labelling kit RED-tris-NTA), unlabelled importins titrated; 20 mM HEPES, 150 mM NaCl, pH 8.0; 25 °C; single binding model
[3] = target: IMPα2 lacking the IMPβ-binding domain (residues 70-529) (UniProt P52293 70-529); assay: as above
[4] = target: IMPα5 lacking the IMPβ-binding domain (residues 73-538) (human, UniProt P52294 73-538); assay: as above
Chain of IMPα5 lacking the IMPβ-binding domain (residues 73-538) (P52294 73-538): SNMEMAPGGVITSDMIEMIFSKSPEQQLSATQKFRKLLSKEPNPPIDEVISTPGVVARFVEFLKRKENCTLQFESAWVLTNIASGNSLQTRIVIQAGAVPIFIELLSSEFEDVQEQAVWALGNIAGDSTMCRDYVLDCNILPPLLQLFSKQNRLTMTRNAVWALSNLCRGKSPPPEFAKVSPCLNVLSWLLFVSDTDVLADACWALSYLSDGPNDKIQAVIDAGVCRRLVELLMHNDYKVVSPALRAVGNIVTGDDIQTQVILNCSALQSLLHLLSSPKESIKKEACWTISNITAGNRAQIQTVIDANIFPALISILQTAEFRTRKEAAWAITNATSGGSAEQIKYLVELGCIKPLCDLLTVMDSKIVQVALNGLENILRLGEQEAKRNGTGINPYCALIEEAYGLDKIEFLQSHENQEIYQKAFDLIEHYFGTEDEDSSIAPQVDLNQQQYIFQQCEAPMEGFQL

[5] = target: IMPα1 lacking the IMPβ-binding domain (residues 70-529) (human, UniProt P52292 70-529); assay: as above

| binding result [1] | Binder | further results |
| --- | --- | --- |
| binds | His-tagged SOX2 K42A (domain or fragment, SOX2 HMG domain, human, residues 39-127 of UniProtKB P48431, with K42A; source: E. coli, recombinant, purified; not shown: His6, N-terminal, kept) not shown |  |
| binds | His-tagged SOX2 T116E (to mimic phosphorylation) (domain or fragment, SOX2 HMG domain, human, residues 39-127 of UniProtKB P48431, with T116E; source: E. coli, recombinant, purified; not shown: His6, N-terminal, kept) not shown |  |
| binds | His-tagged SOX2 R40A (domain or fragment, SOX2 HMG domain, human, residues 39-127 of UniProtKB P48431, with R40A; source: E. coli, recombinant, purified; not shown: His6, N-terminal, kept) not shown |  |
| binds | His-tagged SOX2 R57A (domain or fragment, SOX2 HMG domain, human, residues 39-127 of UniProtKB P48431, with R57A; source: E. coli, recombinant, purified; not shown: His6, N-terminal, kept) not shown |  |
| binds | His-tagged SOX2 R56A (domain or fragment, SOX2 HMG domain, human, residues 39-127 of UniProtKB P48431, with R56A; source: E. coli, recombinant, purified; not shown: His6, N-terminal, kept) not shown |  |
| binds | His-tagged SOX2 R113A (domain or fragment, SOX2 HMG domain, human, residues 39-127 of UniProtKB P48431, with R113A; source: E. coli, recombinant, purified; not shown: His6, N-terminal, kept) not shown |  |
| binds | His-tagged SOX2 R43A (domain or fragment, SOX2 HMG domain, human, residues 39-127 of UniProtKB P48431, with R43A; also called R43A-SOX2; source: E. coli, recombinant, purified; not shown: His6, N-terminal, kept) not shown |  |
| binds | His-tagged SOX2 R98A (domain or fragment, SOX2 HMG domain, human, residues 39-127 of UniProtKB P48431, with R98A; source: E. coli, recombinant, purified; not shown: His6, N-terminal, kept) not shown |  |
|  | His-tagged SOX2 HMG domain (residues 39-127), wild type (domain or fragment, SOX2 HMG domain, human, residues 39-127 of UniProtKB P48431; pET30a+ construct with a TEV site (ENLYFQS) between tag and SOX2; in MST the labelled SOX2 carries the RED-tris-NTA dye of the his-tag labelling kit; also called SOX2 WT; source: E. coli BL21 (DE3) pLysS, purified (HisTrap, SEC); not shown: His6, N-terminal, kept) not shown | Kd [2]: 102 nM; Kd [3]: 283 nM; Kd [4]: 247 nM; Kd [5]: 447 nM |
| binds | His-tagged SOX2 K115A (domain or fragment, SOX2 HMG domain, human, residues 39-127 of UniProtKB P48431, with K115A; source: E. coli, recombinant, purified; not shown: His6, N-terminal, kept) not shown |  |
| binds | His-tagged SOX2 K117A (domain or fragment, SOX2 HMG domain, human, residues 39-127 of UniProtKB P48431, with K117A; source: E. coli, recombinant, purified; not shown: His6, N-terminal, kept) not shown |  |
| binds | His-tagged SOX2 R114A (domain or fragment, SOX2 HMG domain, human, residues 39-127 of UniProtKB P48431, with R114A; source: E. coli, recombinant, purified; not shown: His6, N-terminal, kept) not shown |  |
